The values that follow come from IntAct's records for PubMed 21059944.

The chains are these.
B1: Tumor necrosis factor receptor superfamily member 11A (Mus musculus), O35305 (parent)
chain: MAPRARRRRQLPAPLLALCVLLVPLQVTLQVTPPCTQERHYEHLGRCCSRCEPGKYLSSKCTPTSDSVCLPCGPDEYLDTWNEEDKCLLHKVCDAGKALVAVDPGNHTAPRRCACTAGYHWNSDCECCRRNTECAPGFGAQHPLQLNKDTVCTPCLLGFFSDVFSSTDKCKPWTNCTLLGKLEAHQGTTESDVVCSSSMTLRRPPKEAQAYLPSLIVLLLFISVVVVAAIIFGVYYRKGGKALTANLWNWVNDACSSLSGNKESSGDRCAGSHSATSSQQEVCEGILLMTREEKMVPEDGAGVCGPVCAAGGPWAEVRDSRTFTLVSEVETQGDLSRKIPTEDEYTDRPSQPSTGSLLLIQQGSKSIPPFQEPLEVGENDSLSQCFTGTESTVDSEGCDFTEPPSRTDSMPVSPEKHLTKEIEGDSCLPWVVSSNSTDGYTGSGNTPGEDHEPFPGSLKCGPLPQCAYSMGFPSEAAASMAEAGVRPQDRADERGASGSGSSPSDQPPASGNVTGNSNSTFISSGQVMNFKGDIIVVYVSQTSQEGPGSAEPESEPVGRPVQEETLAHRDSFAGTAPRFPDVCATGAGLQEQGAPRQKDGTSRPVQEQGGAQTSLHTQGSGQCAE

Variants of B1 are the subject of this assay. As to conditions: with Tnfsf11, O35235-1.
Tnfsf11, O35235-1, sequence (O35235 whole entry): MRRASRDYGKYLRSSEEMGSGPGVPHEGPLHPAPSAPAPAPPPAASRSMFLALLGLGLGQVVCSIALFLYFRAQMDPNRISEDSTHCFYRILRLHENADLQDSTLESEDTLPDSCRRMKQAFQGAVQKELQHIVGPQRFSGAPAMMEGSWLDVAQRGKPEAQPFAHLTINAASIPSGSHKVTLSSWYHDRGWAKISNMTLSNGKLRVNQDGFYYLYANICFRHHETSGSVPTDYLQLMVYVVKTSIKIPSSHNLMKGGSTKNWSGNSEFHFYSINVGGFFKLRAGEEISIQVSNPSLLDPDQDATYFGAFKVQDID
Turning to G54R, the “effect of a mutation on the interaction” value is “disrupting interaction”.
Then K97A, with “disrupting interaction”.
As to E126A, the “effect of a mutation on the interaction” value is reported as “disrupting interaction”.
Then D85A, with “decreasing interaction”.
Then K171G, with “disrupting interaction”; and C127A, with “disrupting interaction”.
